Measured values taken from patent publication US20220412975.

How the values were obtained:
[1] = test system: (HiLyteFluor-488)-DELSSMVLELRGLRT-K(QXL520)-E-NH2
[2] = test system: COMP1 candidate peptide, (Donor) GMQQSVRTGLPS (K-Quencher)
[3] = test system: COMP2 candidate peptide, (Donor) SPGFRC(Acm)EAC(Acm)PPGYS (K-Quencher)
[4] = test system: TSP1-1 substrate, (HiLyteFluor-488)-DELSSMVLELRGLRT-K(QXL520)-NH2
[5] = test system: TSP1-2 substrate, (HiLyteFluor-488)-SSMVLELRGLRTIVT-K(QXL520)-NH2
[6] = test system: TSP1-3 substrate, (HiLyteFluor-488)-KVTEENKELANELRR-K(QXL520)-NH2
[7] = test system: TSP1-4 substrate, (HiLyteFluor-488)-EENKELANELRRPPL-K(QXL520)-NH2
[8] = test system: TSP1-5 substrate, (HiLyteFluor-488)-SSMVLELRGLRT-K(QXL520)-NH2

rPro-hCD-FM2 (Rat 1-217/Human 237-537 FM2 (Q216K))-TEV-2Strep-6His, sequence (chain, as listed by the source Q216K): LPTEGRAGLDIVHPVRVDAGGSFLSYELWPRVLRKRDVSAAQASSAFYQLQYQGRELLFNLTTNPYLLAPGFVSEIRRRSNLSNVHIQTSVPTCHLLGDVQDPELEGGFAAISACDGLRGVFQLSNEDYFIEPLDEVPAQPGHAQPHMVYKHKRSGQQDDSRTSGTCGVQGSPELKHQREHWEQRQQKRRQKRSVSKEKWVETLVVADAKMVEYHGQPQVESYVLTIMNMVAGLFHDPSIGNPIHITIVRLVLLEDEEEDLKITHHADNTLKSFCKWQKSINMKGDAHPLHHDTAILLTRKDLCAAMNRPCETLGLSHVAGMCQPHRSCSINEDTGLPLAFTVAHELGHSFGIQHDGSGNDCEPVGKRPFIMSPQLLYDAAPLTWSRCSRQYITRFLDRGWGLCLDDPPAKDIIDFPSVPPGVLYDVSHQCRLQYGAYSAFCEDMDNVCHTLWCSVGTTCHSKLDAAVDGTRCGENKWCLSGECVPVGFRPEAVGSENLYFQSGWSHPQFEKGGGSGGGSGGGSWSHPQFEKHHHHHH
rPro-hCD (Rat 1-217/Human 237-537)-TEV-2Strep-6His, sequence (chain, as listed by the source): as the sequence (chain, as listed by the source Q216K) above, with K192Q counted along it

Row | Substance | FRET peptide cleavage (increase of fluorescence intensity) [1] | FRET peptide cleavage (Relative Fluorescence Units over time) [2] | kcat [2] | FRET peptide cleavage (Relative Fluorescence Units over time) [3] | kcat [3] | FRET peptide cleavage (Relative Fluorescence Units over time) [4] | kcat [4] | FRET peptide cleavage (Relative Fluorescence Units over time) [5] | kcat [5] | FRET peptide cleavage (Relative Fluorescence Units over time) [6] | kcat [6] | FRET peptide cleavage (Relative Fluorescence Units over time) [7] | kcat [7] | FRET peptide cleavage (Relative Fluorescence Units over time) [8] | kcat [8]
1 | rPro-hCD-FM2 (Rat 1-217/Human 237-537 FM2 (Q216K))-TEV-2Strep-6His | It was surprisingly found that the same substrate could be used for the paralogs ADAMTS-7 and ADAMTS-12 | No activity was observed with COMP candidate peptides COMP1 | 1.27e-05 s⁻¹ | No activity was observed with COMP candidate peptides COMP1 ... or COMP2 | 6.5e-06 s⁻¹ | demonstrated the greatest specificity for the TSP1 S1 | 0.0004 s⁻¹ | also cleaved the overlapping TSP1 S2 substrate | 4.83e-05 s⁻¹ | No significant activity was detected at the defined ADAMTS1 cleavage site E311⬇L312 from TSP1 S3 | 2e-05 s⁻¹ | No significant activity was detected at the defined ADAMTS1 cleavage site E311⬇L312 from TSP1 S3 ... or TSP1 S4 | 3.5e-05 s⁻¹ | Activity was observed for the S5 substrate with ADAMTS-7 human catalytic domain constructs compared to buffer alone, however the removal of the amino DEL sequence greatly reduced the signal for activity compared to the 51 substrate | 3.5e-05 s⁻¹
2 | rPro-hCD (Rat 1-217/Human 237-537)-TEV-2Strep-6His | It was surprisingly found that the same substrate could be used for the paralogs ADAMTS-7 and ADAMTS-12 | No activity was observed with COMP candidate peptides COMP1 | 1.22e-05 s⁻¹ | No activity was observed with COMP candidate peptides COMP1 ... or COMP2 | 6.33e-06 s⁻¹ | demonstrated the greatest specificity for the TSP1 S1 | 0.00035 s⁻¹ | also cleaved the overlapping TSP1 S2 substrate | 5.33e-05 s⁻¹ | No significant activity was detected at the defined ADAMTS1 cleavage site E311⬇L312 from TSP1 S3 | 2e-05 s⁻¹ | No significant activity was detected at the defined ADAMTS1 cleavage site E311⬇L312 from TSP1 S3 ... or TSP1 S4 | 3.33e-05 s⁻¹ | Activity was observed for the S5 substrate with ADAMTS-7 human catalytic domain constructs compared to buffer alone, however the removal of the amino DEL sequence greatly reduced the signal for activity compared to the 51 substrate | 3.33e-05 s⁻¹
